The chains are these.
B2: CFP-PARP2 (mCerulean fused to the N-terminus of the PARP2 ART domain) (domain or fragment, human, UniProt Q9UGN5-1 356-583, looked up)
chain: HPLDQHYRNLHCALRPLDHESYEFKVISQYLQSTHAPTHSDYTMTLLDLFEVEKDGEKEAFREDLHNRMLLWHGSRMSNWVGILSHGLRIAPPEAPITGYMFGKGIYFADMSSKSANYCFASRLKNTGLLLLSEVALGQCNELLEANPKAEGLLQGKHSTKGLGKMAPSSAHFVTLNGSTVPLGPASDTGILNPDGYTLNYNEYIVYNPNQVRMRYLLKVQFNFLQLW
notes: Construct order: His6 tag-CFP-TEV protease site-ART domain; source: E. coli BL21(DE3), purified (Ni-NTA IMAC, SEC); not shown: mCerulean (CFP), N-terminal, kept

Assay [1] concerns the target T1, PARP2 (Homo sapiens, UniProt Q9UGN5). The settings on record: cited from earlier work.
The target of assay [2] is PARP1 ART (Homo sapiens) (UniProt P09874). The settings on record: cited from earlier work.
In assay [3] the target is T1, PARP2. Kind of assay: FRET PARP2-HPF1 interaction inhibition (olaparib present); nanoDSF shift of the PARP2 ART domain ([…] to […] °C), none for HPF1. It is filed as binding. Also noted: PARP2 ART domain (CFP-fused in FRET); with HPF1.
In assay [4] the target is T2, PARP1 (Homo sapiens, UniProt P09874, DEL678-787).
T2 construct: PARP1 ART fragment [T661-F676 + GSGSGSGG + (D788-W1014)], CFP-fused; with HPF1
Kind of assay: biochemical. It is filed as binding.

Assay [5] has as its target B2. Kind of assay: FRET or BRET; competition of the FRET pair (CFP-PARP2, YFP-HPF1) with desalted (buffer-exchanged) unlabeled HPF1; rFRET read-out; HPF1 aggregated at high concentrations without salt. The settings on record: both partners purified. In general terms: Bioluminescence resonance energy transfer reports proximity on the nanometre scale.
Assay [6] addresses B2. Nature of the assay: FRET or BRET; competition of the FRET pair (400 nM CFP-PARP2, 800 nM YFP-HPF1) with increasing unlabeled HPF1 whose stock adds salt; rFRET read-out; apparent IC50; 20 µl, 384-well plates, 4 replicates. The settings on record: both partners purified.
In assay [7] the target is T3, YFP-HPF1 (mCitrine fused to the N-terminus of full length HPF1) (UniProt Q9NWY4 1-346).
T3 construct: Histone PARylation Factor 1 (HPF1), full length; The methods print 'His6 tag- CFP-TEV protease site followed by full length HPF1' for the YFP-tagged HPF1; This is probably a slip for YFP, since the vector is pNIC-YFP; also called Histone PARylation Factor; source: E. coli BL21(DE3), purified (Ni-NTA IMAC, SEC); not shown: mCitrine (YFP), N-terminal, kept
T3 sequence (looked up): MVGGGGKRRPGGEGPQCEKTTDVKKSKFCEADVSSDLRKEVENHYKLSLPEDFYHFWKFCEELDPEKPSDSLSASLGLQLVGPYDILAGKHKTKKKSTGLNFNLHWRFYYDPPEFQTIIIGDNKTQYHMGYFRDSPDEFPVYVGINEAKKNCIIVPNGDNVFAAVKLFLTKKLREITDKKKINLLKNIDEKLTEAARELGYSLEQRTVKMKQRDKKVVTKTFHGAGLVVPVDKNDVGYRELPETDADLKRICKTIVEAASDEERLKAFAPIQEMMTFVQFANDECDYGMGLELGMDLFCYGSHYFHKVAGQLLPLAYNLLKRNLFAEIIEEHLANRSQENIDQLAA
Kind of assay: FRET or BRET; in solution; constant 400 nM CFP-PARP2 mixed with YFP-HPF1 250 nM to 10.5 µM, first mixed at high concentration in presence of Olaparib, salt backfilled; EmFRET by the method of Song et al.; 10 µl, 384-well plates, 4 replicates, 3 independent experiments. The settings on record: both partners purified.

T2 sequence (P09874 788-1014, stated change not applied, other chains not shown): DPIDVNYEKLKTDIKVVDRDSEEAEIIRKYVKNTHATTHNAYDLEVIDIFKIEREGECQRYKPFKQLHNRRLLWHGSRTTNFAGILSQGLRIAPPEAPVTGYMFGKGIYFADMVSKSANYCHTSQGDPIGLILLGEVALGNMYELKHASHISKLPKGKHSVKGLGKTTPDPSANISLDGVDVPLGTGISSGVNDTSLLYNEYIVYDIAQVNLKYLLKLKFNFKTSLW
Sequence of PARP1 ART (Homo sapiens) (P09874 788-1014): as the sequence (P09874 788-1014, stated change not applied, other chains not shown) above

With HPF1 (from UniProt Q9NWY4), the Kd is 3 µM in assay [1] and 1.5 µM in assay [2]. As to `CC(C)=CC[C@@H](OC(=O)C=C(C)C)C1=CC(=O)c2c(O)ccc(O)c2C1=O` [Dimethylacrylshikonin], the IC50 worked out at 15.7 µM in assay [3] and 29.3 µM in assay [4]. For `CC(C)=CC[C@H](O)C1=CC(=O)c2c(O)ccc(O)c2C1=O` [Alkannin], the IC50 was 21.2 µM in assay [3] and 16.2 µM in assay [4].

B1: unlabeled HPF1 (full length) (natural protein, UniProt Q9NWY4 1-346, looked up)
chain: MVGGGGKRRPGGEGPQCEKTTDVKKSKFCEADVSSDLRKEVENHYKLSLPEDFYHFWKFCEELDPEKPSDSLSASLGLQLVGPYDILAGKHKTKKKSTGLNFNLHWRFYYDPPEFQTIIIGDNKTQYHMGYFRDSPDEFPVYVGINEAKKNCIIVPNGDNVFAAVKLFLTKKLREITDKKKINLLKNIDEKLTEAARELGYSLEQRTVKMKQRDKKVVTKTFHGAGLVVPVDKNDVGYRELPETDADLKRICKTIVEAASDEERLKAFAPIQEMMTFVQFANDECDYGMGLELGMDLFCYGSHYFHKVAGQLLPLAYNLLKRNLFAEIIEEHLANRSQENIDQLAA
notes: Histone PARylation Factor 1 (HPF1), full length, without fluorescent protein; also called unlabelled full length HPF1; desalted unlabeled HPF1
Take B1: the results for the IC50 in assay [5] and in assay [6] were 24 µM and 1.5 µM, respectively. As to B2, the Kd in assay [7] was found to be 2 ± 0.18 µM.

A word on the Kd: it is a measure of binding affinity in units of concentration. As usually defined, the IC50 is the concentration needed to halve the response being measured.
